Tests used:
[1] = Activity assay on insoluble substrate: corn stover; assay type: biochemical
Description: Corn stover refers to stalks, leaves and cobs that remain in the fields after the corn kernel harvest and is the largest quantity of biomass residue in the United States and as such is also a LC-biomass source for producing cellulosic ethanol in the United States. [C2mim][OAc] pretreated corn stover is used as a substrate to verify enzymatic efficiency on IL-pretreated biomass and a comparison made with [C2mim][OAc] pretreated Avicel. Avicel is a commercially available microcrystalline cellulose and a good model substrate for analysis. Similar assays are done in the presence of [C2mim][OAc] to simulate real biomass processing and saccharification scenarios. The assay products for the reactions in the presence of IL are detected by high performance anion exchange chromatography (HPAEC). The enzymatic hydrolysis reaction is carried out for 8 h for the T. viride cellulase and 15 h for the hyperthermophilic enzymes, taking into account the half-lives of these enzymes. To compare the amounts of total sugars formed between different reactions, the sum of glucose, xylose and cellobiose are calculated and reported as mmoles of sugars formed per min per mg of enzyme used (Table 7). A comparison of assay results between pretreated and untreated substrate indicates a 2-6 fold increase in hydrolysis products after pretreatment irrespective of the enzyme used, thereby confirming that IL pretreatment can increase the efficiency of hydrolysis of cellulose recovered from biomass. […] The catalytic efficiency of the fungal enzyme however, decreases with increasing IL concentration in the reaction mix. After normalizing for the reaction time and enzyme amounts, the amount of sugars formed is undetectable at 15% [C2mim][OAc]. […] The yield of sugars from Tma Cel5A hydrolysis of pretreated Avicel in the presence of 15% IL decreases by 43% compared to 0% IL, while the decrease is only 10% in the case of Pho EG on the same substrate under similar conditions (Table 7).
The hydrolysis reactions are performed under pH and temperatures for each enzyme as described herein. The reactions are run over a 14 h period with 5-10 mg of enzyme with 6% (w/v) enzyme loading in optimum buffer for each enzyme and run in duplicate. The reaction products are measured on a HPLC and HPAEC. The amounts of sugars detected are shown in mmoles and normalized with regards to amount of enzyme and time of reaction. Different reactions under each enzyme were run under exactly similar conditions.
(§1) Enzymatic activity is measured on soluble polysaccharide substrates, CMC, using the 3,5-dinitrosalicylic acid (DNS) reducing sugar assay. Briefly, 2% CMC (w/v) in […] acetate buffer, (100 mM, pH 4.5 and pH 4.8 for T. viride and Tma, respectively, and 100 mM MES buffer, pH 6.4 for P. hori EG) is incubated at 80° C. for 30 min for Tma Cel5A and Pho enzymes and 37° C. and 10 min for T. viride. The solution is cooled down to 4° C. and […] of DNS solution is added. The reactants are incubated at 95° C. for 5 min and cooled down to room temperature before the absorbance is read at 540 nm. The reducing sugar concentration in the sample is calculated from its absorbance using the standard curve of D-glucose and cellobiose. For hydrolysis reactions in the presence of [C2mim][OAc], control reactions with CMC in the presence of IL but without no enzyme is subtracted from each measurement. The solid substrate (Avicel and corn stover) hydrolysis reactions are conducted at 80° C. for 15 h for the recombinant enzymes and at 37° C. for 8 h in the case of T. viride cellulose at the optimum pH for each enzyme. The reaction products are monitored using an Agilent 1200 HPLC equipped with Varian 380-LC Evaporative Light Scattering Detector. The total reaction volumes are […] and shaken at 900 rpm at temperature controlled shakers. Enzyme loadings are 0.4 mg per g of glucan and each data point is measured in triplicate. […]

[2] = Enzymatic hydrolysis of CMC (DNS / Azo-CMC reducing sugar assay) in the presence of EMIM Acetate ([C2mim][OAc]); assay type: biochemical
Experimental: (v/v) were incubated at 37° C. (T. viride), 80° C. (TmaEG, Pho EG). The specific activities were calculated as mmoles of reducing sugars formed per min per mg of enzyme. The specific activities are reported as percentages of residual specific activity, taking the specific activity of IL free enzyme a 100% activity. Error bars indicate the standard deviation.
The enzymetic activity of the cellulases of Trichoderma viride, Thermatoga maritima, and Pyrococcus horikoshii are measured under varying concentrations of EMIM Acetate. […] The enzymes activities are calculated using both the Azo-CMC assay and the DNS assay. […] At 10% EMIM Acetate the % specific activity of T. viride endoglucanase is near 0%, while at 20% EMIM Acetate the % specific activity of T. maritima endoglucanase is nearly 40%.
Enzymatic activity is measured on soluble polysaccharide substrates, CMC, using the dinitrosalicylic acid reducing sugar assay. Briefly, CMC (2% w/v) in […] acetate buffer, (100 mM, pH 4.8) is incubated with enzyme at 80° C. for 30 minutes for Tma and 37° C. and 10 minutes for T. viride. The solution is cooled down to 4° C. and 80 μL of DNS solution is added. The reactants are incubated at 95° C. for 5 minutes and cooled down to room temperature before the absorbance is read at 540 nm. The reducing sugar concentration in the sample is calculated from its absorbance using the standard curve of D-glucose. All experiments are run in triplicate.
The purified recombinant enzymes are assayed in the presence of [C2mim][OAc] and the specific activity results are compared with the cellulase from T. viride. [C2mim][OAc] was selected as the IL of choice. The assays are performed under optimum pH and temperatures for T. maritima and T. viride enzymes. Optimum pH and temperatures for T. maritima Cel5A is pH 4.8 and 80° C., respectively. Optimum pH and temperatures for T. viride cellulase is pH 4.5 and 37° C., respectively. The Pho EG is assayed at 80° C. where its specific activity is around 10% less than at 95° C. […] In the presence of 5% (v/v) [C2mim][OAc] the enzyme loses 60% of its activity while it is undetectable in the presence of 10% (v/v) [C2mim][OAc]. Both the recombinant hyperthermophilic enzymes behave very differently. Tma Cel5A in the presence of 5% [C2mim][OAc] loses 24% of its specific activity. At 15% IL (v/v), Tma Cel5A retains 50% of its specific activity. The highest residual activities are observed with Pho EG which retains 100% activity in 20% IL (v/v) (FIG. 6).
as §1

B1: Pho EG: cellulase of Pyrococcus horikoshii strain OT3 (Accession No. NP_143072); SEQ ID NO: 21 (protein, listed as Pyrococcus horikoshii)
chain: MEGNTILKIVLICTILAGLFGQVVPVYAENTTYQTPTGIYYEVRGDTIYMINVTSGEETPIHLFGVNWFGFETPNHVVHGLWKRNWEDMLLQIKSLGFNAIRLPFCTESVKPGTQPIGIDYSKNPDLRGLDSLQIMEKIIKKAGDLGIFVLLDYHRIGCTHIEPLWYTEDFSEEDFINTWIEVAKRFGKYWNVIGADLKNEPHSVTSPPAAYTDGTGATWGMGNPATDWNLAAERIGKAILKVAPHWLIFVEGTQFTNPKTDSSYKWGYNAWWGGNLMAVKDYPVNLPRNKLVYSPHVYGPDVYNQPYFGPAKGFPDNLPDIWYHHFGYVKLELGYSVVIGEFGGKYGHGGDPRDVIWQNKLVDWMIENKFCDFFYWSWNPDSGDTGGILQDDWTTIWEDKYNNLKRLMDSCSKSSSSTQSVIRSTTPTKSNTSKKICGPAILIILAVFSLLLRRAPR
Sugars produced (sum of glucose, cellobiose and xylose) ([1]; 0% [C2mim][OAc]): 0.58 ± 0.1 µmol/min/mg
Sugars produced (sum of glucose, cellobiose and xylose) ([1]; 5% [C2mim][OAc]): 0.59 ± 0.1 µmol/min/mg
Sugars produced (sum of glucose, cellobiose and xylose) ([1]; 10% [C2mim][OAc]): 0.57 ± 0.1 µmol/min/mg
Sugars produced (sum of glucose, cellobiose and xylose) ([1]; 15% [C2mim][OAc]): 0.59 ± 0.1 µmol/min/mg
activity in 2.9% EMIM Acetate compared with 0% [2]: at least as active in 2.9% EMIM Acetate as in 0% EMIM Acetate
activity in 2.9% EMIM Acetate compared with 0% ([2]; listed as P. horikoshii): remain unchanged
% Specific Activity ([2]; 20% EMIM Acetate): 100%
specific activity at 80° C. less than at 95° C. ([2]; 80° C. vs 95° C.): around 10%

B2: Tma Cel5A: wild-type cellulase of Thermatoga maritima strain MSB8 (Accession No. NP_229549); SEQ ID NO: 20 (protein, listed as Thermotoga maritima)
chain: MGVDPFERNKILGRGINIGNALEAPNEGDWGVVIKDEFFDIIKEAGFSHVRIPIRWSTHAYAFPPYKIMDRFFKRVDEVINGALKRGLAVVINIHHYEELMNDPEEHKERFLALWKQIADRYKDYPETLFFEILNEPHGNLTPEKWNELLEEALKVIRSIDKKHTIIIGTAEWGGISALEKLSVPKWEKNSIVTIHYYNPFEFTHQGAEWVEGSEKWLGRKWGSPDDQKHLIEEFNFIEEWSKKNKRPIYIGEFGAYRKADLESRIKWTSFVVREMEKRRWSWAYWEFCSGFGVYDTLRKTWNKDLLEALIGGDSIE
Sugars produced (sum of glucose, cellobiose and xylose) ([1]; 0% [C2mim][OAc]): 3 ± 0.9 µmol/min/mg
Sugars produced (sum of glucose, cellobiose and xylose) ([1]; 5% [C2mim][OAc]): 2 ± 0.3 µmol/min/mg
Sugars produced (sum of glucose, cellobiose and xylose) ([1]; 10% [C2mim][OAc]): 2.4 ± 0.8 µmol/min/mg
Sugars produced (sum of glucose, cellobiose and xylose) ([1]; 15% [C2mim][OAc]): 2.3 ± 0.5 µmol/min/mg
Optimum pH [2]: 4.8
Optimum temperature [2]: 80 °C
tolerance to EMIM Acetate compared to T. viride [2]: more tolerant to EMIM Acetate
% Specific Activity ([2]; 0% EMIM Acetate): 100%
% Specific Activity (Table 5) ([2]; 0% EMIM Acetate): 31 ± 2^ %
activity in 2.9% EMIM Acetate compared with 0% [2]: at least as active in 2.9% EMIM Acetate as in 0% EMIM Acetate
activity in 2.9% EMIM Acetate compared with 0% ([2]; listed as T. maritima): remain unchanged
loss of specific activity ([2]; 5% (v/v) [C2mim][OAc]): 24%
% Specific Activity ([2]; 5% EMIM Acetate): 77%
% Specific Activity (Table 5) ([2]; 5% EMIM Acetate): 24 ± 1^ %
% Specific Activity ([2]; 10% EMIM Acetate): 65%
% Specific Activity (Table 5) ([2]; 10% EMIM Acetate): 20 ± 0.8%
% Specific Activity ([2]; 15% EMIM Acetate): 50%
% Specific Activity (Table 5) ([2]; 15% EMIM Acetate): 15 ± 0.5%
% Specific Activity (Table 5) ([2]; 20% EMIM Acetate): 13 ± 0.9%
% Specific Activity ([2]; 20% EMIM Acetate, listed as T. maritima endoglucanase): 45%

From patent US9322042B2, “Thermostable cellulases, and mutants thereof, capable of hydrolyzing cellulose in ionic liquid” (The Regents of the University of California, priority 2009, dated 2016)
